Laboratory results as given in publication PMC2275666 (The EMBO Journal, 2008).
Several values for one entry are separate records, joined by “and”; a condition that tells them apart may be missing. Equal values may be shown once. Read-outs that look alike come from different tables or passages of the source.

T1: hTFIIH p62 PH-D (pleckstrin homology domain of the p62 subunit of human TFIIH) (human, UniProt P32780 1-108)
T1 sequence: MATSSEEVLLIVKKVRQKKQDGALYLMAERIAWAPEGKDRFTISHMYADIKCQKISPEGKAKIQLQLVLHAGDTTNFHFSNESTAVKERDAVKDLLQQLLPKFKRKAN

B1: FLAG-tagged hTFIIH p62 PH-D, wild type (domain or fragment)
chain: T1 sequence
B2: hTFIIEα AC-D(381−394) peptide (N-terminal tail only) (peptide)
peptide: EEEDDEFEEVADDP
B3: hTFIIEα AC-D (C-terminal acidic domain of the human TFIIEα subunit, residues 378–439) (domain or fragment)
chain: EEDEEEDDEFEEVADDPIVMVAGRPFSYSEVSQRPELVAQMTPEEKEAYIAMGQRMFEDLFE
B4: hTFIIEα(351−439) (longer construct with STDE and acidic regions, NMR titration) (domain or fragment)
chain: GSDSESETSESDDDSPPRPAAVAVHKREEDEEEDDEFEEVADDPIVMVAGRPFSYSEVSQRPELVAQMTPEEKEAYIAMGQRMFEDLFE
B5: 6H–hTFIIEα wild type (full-length hTFIIEα) (natural protein)
chain: MADPDVLTEVPAALKRLAKYVIRGFYGIEHALALDILIRNSCVKEEDMLELLKFDRKQLRSVLNNLKGDKFIKCRMRVETAADGKTTRHNYYFINYRTLVNVVKYKLDHMRRRIETDERDSTNRASFKCPVCSSTFTDLEANQLFDPMTGTFRCTFCHTEVEEDESAMPKKDARTLLARFNEQIEPIYALLRETEDVNLAYEILEPEPTEIPALKQSKDHAATTAGAASLAGGHHREAWATKGPSYEDLYTQNVVINMDDQEDLHRASLEGKSAKERPIWLRESTVQGAYGSEDMKEGGIDMDAFQEREEGHAGPDDNEEVMRALLIHEKKTSSAMAGSVGAAAPVTAANGSDSESETSESDDDSPPRPAAVAVHKREEDEEEDDEFEEVADDPIVMVAGRPFSYSEVSQRPELVAQMTPEEKEAYIAMGQRMFEDLFE
B6: GST–p62(1−108) (GST-tagged p62 PH-D) (domain or fragment)
chain: T1 sequence
B7: GST–p62(1−238) (domain or fragment)
chain: not shown
B8: GST–p62(1−333) (domain or fragment)
chain: not shown

Tests used:
[1] = target: B5; experiment: pull-down
[2] = target: T1, hTFIIH p62 PH-D (pleckstrin homology …); experiment: NMR titration
[3] = target: full-length GST–p62(1−548) (human, UniProt P32780 1-548); experiment: pull-down
[4] = target: B5; experiment: pull-down; remark: listed apart in the source

Kd [2]	binding result [4]	Binder	further results
		B1	binding result [1]: binds
2120 ± 192 nM		B2	
376 nM and 237 nM		B3	
400 ± 43 nM		B4	
		B5	binding result [3]: binds
	binds	B6	
	binds	B7	
	binds	B8	
